Patent US20220306762A1 (CRYSTAL BIOSCIENCE, published 2022)
Read-outs that look alike come from different tables or passages of the source.

Experiments:
[1] = biological target: T1, CD38 on Daudi target cells (UniProt P28907 1-300, limits assumed); test: cell-based or functional assay
[2] = biological target: T1, CD38 on Daudi target cells; test: cell-based or functional assay; remark: listed apart in the source
[3] = biological target: T2, His-tagged human CD38 (ACRO Biosystems cat #CD8-H5224) (human, UniProt P28907 43-300); test: SPR (Carterra LSA), antibody captured by anti-human Fc, His-tagged CD38 injected; IgG by the head of Table 5
T2 construct: Bought His-tagged protein

[4] = biological target: T3, His-tagged cynomolgus monkey CD38 (ACRO Biosystems cat # CD8-05223 [sic]) (cynomolgus monkey, UniProt Q5VAN0 43-301); test: as above
T3 construct: Bought His-tagged protein; also called cynomolgus CD38

[5] = biological target: T2, His-tagged human CD38 (ACRO Biosystems …); test: SPR (Carterra LSA), antibody captured by anti-human Fc, His-tagged CD38 injected
[6] = biological target: T3, His-tagged cynomolgus monkey CD38 (ACRO …); test: as above

Lowest Remaining Target % [1]	Max RLU [1]	PBMC ADCC EC50 [1]	Reporter cell ADCC EC50 [1]	ADCC EC50 [2]	Lowest Remaining Target % [2]	Max RLU [2]	PBMC ADCC EC50 [2]	Kd [3]	Kd [4]	Kd [5]	Kd [6]	Binder
56%	1.85e+06 RLU	0.273 ng/mL	9.82 ng/mL	9.82 ng/mL	56%	1.85e+06 RLU	0.273 ng/mL	2.58 nM	3.27 nM			40769p2.2.A8 (antibody, V domains shown, Human V regions from transgenic chicken, cloned as scFv-Fc; The variable domains can be found in the listing by the CDRs) VH: EVQLLESGGGLVQPGGSLRLSCAASGFTFSDYWMNWVRQAPGKGLEWVSTISISGGIIYYADSVKGRFTISRDNSKNTLYLQMNSLRAEDTAVYYCAKDNWNDYYGMDVWGQGTTVTVSS VL: QSVLTQPPSASGTPGQRVTISCSGSTSNIRDNYVYWYQQVPGTAPKLLIYKDDQRPSGVPDRFSGSKSGTSASLAISGLQSDDEADYYCATWDGSLNGRVFGGGTKLTVL
				20.7 ng/mL	54%	1.94e+06 RLU	0.411 ng/mL			0.02 nM	3.08 nM	40769p1.1.H10 (antibody, V domains shown, Human V regions from transgenic chicken, cloned as scFv-Fc; The variable domains can be found in the listing by the CDRs) VH: EVQLLESGGGLVQPGGSLRLSCAAFGFTFSDYEMNWVRQAPGKGLEWVSSISITGSWTGYADSVKGRFTISRDNSKNTLYLQMNNLRAEDTAVYYCANYKSYYGMDVWGQGTTVTVSS VL: not shown
63%	1.44e+06 RLU	0.227 ng/mL	~12.2 ng/mL	~12.2 ng/mL	63%	1.44e+06 RLU	0.227 ng/mL	1.46 nM	1.12 nM			40769p2.1.C4 (antibody, V domains shown, Human V regions from transgenic chicken, cloned as scFv-Fc; The variable domains can be found in the listing by the CDRs) VH: EVQLLESGGGLVHPGGSLRLSCAASGFTFSDYEMNWVRQAPGKGLEWVSSISITGDFTYYADSVKGRFTISRDNSKNTLYLQMNNLRAEDTAVYYCANYKSYYGLDVWGQGTTVTVSS VL: not shown
